Results taken from the domain aggregation screens of Martell et al. (2025).

Assay: soluble fraction after stress (log2 fold change); higher = more stays soluble; pooled small domains, quantitative proteomics
Conditions: stress: pH 4
How it was run: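 Small protein domains from pooled custom libraries were exposed to pH 4, then quantified with high-throughput quantitative proteomics. The fold change in how much of each domain remains soluble is read as aggregation propensity. It is given as log2, with higher values meaning more stayed soluble.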

Sequence | soluble fraction (log2)
HMKDIIVLGAIQAGIKKFDKIQKMTQIEPEELNSILEQLENRGFIQVAEKSGLLGKKIEILVTEKGSNEVD | -0.484
HMKDITAVISKKKGRDYYYIIVSYHLSNGKRVQKWIKTEFSVNGNNKRKLEQKRIEILQEWQNKLV | -0.0977
HMKDITMPNVYGLTLEMAEQTLKQSELSIFKAMKINSDTVEEGKVIYTDPKANSIVSGDQEITIYVSDGP | 0.22
HMKDKSEKTKKLIFEAAFKIIREEGFSELSANKIAQVASVSKGVIFHHFSQMDDLYLFMLDTL | 0.192
HMKDLTAIKGVGEFFAKKLSQAGYQSITNLTDVNAKRLQADTGIPLPIAARIIKEAQSLIAET | -0.00834
HMKDMWNRIRRARLSAGLSQAALAKETGVRRSAVTQWEKEGGTSPSVANLARIAVVTQVHFEWLATGRGPG | -0.216
HMKDNIRSILEDIPNIGPGRRRALLKHFGSIEAIRRASLEDLIKVDGMNRNAALSIMEYFGM | -0.24
HMKDPSLEHIDALAGKPFQAFPGQDHRAHITAHLNFMSTNMVRNNPSIMAAIQKNILEHISLMAQEQIQL | -0.683
HMKEETYHYTVRYVTDGGDILASYEGKATKDSVFFPEVKTFDGYTAVRGEEPMFHLVSDHAVFQIVYQKNG | 0.204
HMKEFEINSQWKPSLEVYDILSVKGGISRNFIEDSIPEFVLYWRGRGDKSNTWDSKFVQHVKRQWNFYSGL | -2.41
HMKEGGREEMSEIVERYGDERALMANITSVQNLMNNMKWTLDQALDALGIKGKERTLITQQLQ | -0.145
HMKEIATKSELTYFIQRLLDLLEETNFFNPEERKKAMINHIEAIFRRNNLTLQELNMLHGIITSITR | -1.38
HMKEIGGGPASKFIYYLIKTKHPIEQGDLIGITHLPRRTVQSAIEDLKNQGFIIERNSLDDSRRKVYYPVK | 0.22
HMKEIKRLVELSPGRYFIEGATNIRVFGINGSLLLDTKGETVDLSDLAKGVYLLKTDGVTYKVL | -0.216
HMKEIYIDRGKEALEKELRKRKIPFQEFLSKENTNLLFDTLKIPSHDLEELYLEIGNGKHAASTVVNTVY | -0.0339
HMKEKQLMTLDDDLYAFLLKHPGIIQKDIYNHFPYDIKGVIADTLYAWDKTGKIKRTKSGNSYIIYT | -0.141
HMKELAADFSRRIINARTSKGWSQADLGQRMAETINVIKSAESGKPPTDAVVKKFETVLGVILM | 0.22
HMKELLDRIFLHETMRRVSQDATITFSKKVYEVPQKFIGRQVTVQYDPEDLSRVYVKDLNFPEPVMVYPVQ | 0.0825
HMKELTPEQLQHNWNNLRQFIDVNFSGDRLGGLNKMYDYFEERMMFAPASGKQHYHNAFAGGYVEHVMHV | 0.0505
HMKEPGFAPPVRALAAAPITVLAQVAGTNPGEIRARLRAAGYPVASDQQSVQSLVGGDLKAQIGVLNRILA | -0.0568
HMKEQIKVPDLSNKTPEEAKKELNTLGLGARKGGEESSDTVEEGLITRQEPAAGEQVDKNTQILFYVSTGK | 0.0545
HMKEQLLLGFKVRSLRGIDLGFVKFIEGSAFQSFLKTDLTIIPNVPNYVKKIDNVKKIILVDWESD | -1.54
HMKEQYTELDWDKVQVNDKVMIKDLNQQVTILSLPDKNNALYIQMGMIKTKVKKEKLAVYNPQLA | -0.103
HMKERVSWDERLERFAKHITENESLPYPSSKEYAWFEENKALYDAGELEPVRAQSFAFLLKIMRRMNL | 0.0752
HMKETIIPELLQNELDKNSELNDKFNTFSPYKQREFIEYIITAKQEKTQISRLQKVILMILEGRGLNN | -0.491

Sequence | soluble fraction (log2)
HMKEVELENMIKAKGFKDAAVLVDERSVTVIVESERLAAGDSASIKELVSRGTGVDPQNVVII | -0.295
HMKEYPEVITTSRLNVRTGPGTGYQRLGTLDQNLRVLVLTRQQGWAQIRGMLNGETVIGWVNDYYLQAID | -0.259
HMKFINISIDKSGNLFINKKSIKFQDLKYNVVNLVDESKNLVVLNADENISHGYVISVLDVLRSIDGLKLA | -0.802
HMKFNEKQNEVRIAIMNFIIDNKRPFHMKQDGYDALEGITLSGRHEFQDILDVLHSRDGFSADEEGNINF | -1.69
HMKFPIITAKQDSDGKFYWAQTTDKGKTYTFILDGDGKKFPIGGTMPDVKINENGYWSVNGSSTGVLANDL | -0.295
HMKFSVEEQFKKSFPKNTYETFSETSLKGVYEVYNGKQVYYYLPVNDVLLLGSIVTKDGKNLTQESNSKK | -0.0849
HMKGIVFTEFLDLVEERFGLEMVDAIISQSKLESKGVYTSIGTYSFSELLQLLQNLKIQTGISIDNLLLI | -1.51
HMKGKIYFFEEGVDRVGGVERVISTLANEFSKKYKVNVISFYKTRKETFFKYNSDIDITYLSK | -0.264
HMKGLDRATNKALLLKHIIDNGSTGTRFSELRQVLPSLTRGSISSLLIELRSEGKIHSIGVTRNARWYPTE | -0.309
HMKGLKERLLYFIEYKGLPVQMFEKIVGLSNAAVSKMGDNTRRSTIDKISKSFPELDVNWLLTGQGEMLSY | 0.296
HMKGPAFAKIDLTQLPAGLTSFLNTNAAGFKLDYAVAITKDSVIIEYHVGVTIGTAKKEFHLDPNFQLLP | -0.1
HMKGPLKDLGPDPVTGKSILVKDGKFGTYVTDGETNATLRRGDIVELLTLERGMELLAEKRARATQ | -0.0516
HMKGTVKFFNESKGFGFITEEGTNKEHFVHVSGLVDEIRENDEVEFDLQDGRKGLNAVNVRV | 0.0618
HMKGVENLSDIDIQKALNNARANLSKNKAKLEQAGDDEKKKASALAMIQKWETTKKAIEEEIEARKKKSLN | -0.088
HMKHAIKEKIRNEYVHGYLNEEGYRVMPTLDELIRKYEVPASSTYRASSKEGWKKQKEAFLEHLRGEIDA | -0.0601
HMKHFFIIAGGKIEDAFAIEVLKGFAEKTVIAADSGMEFLRRNEIVPQVIIGDFDSVSKETLEWFQKK | 0.22
HMKHKGILTTWNDDRGFGFITPKEGKEPVFVHISAFARGQGRPVLNASLTYRLVRDDQQRPRAEAVRL | 0.189
HMKHKHHIIPKHKGGTDHPDNLIELTVEQHAKAHWVEFMLDGREEDYWAWKGLEGVASKKDIIYALSKR | -0.313
HMKHSEAIELGKRMLSQALQDVSLVLKKIPEERLQAVAAELNLKTPDELFEKIGLGERLAALVARRLLP | 0.0472
HMKHTQTDEGELLSTLRTLFPNSSSSSLRKMLTQGRILVNQEVVHRAKHALQAGDEIEVLARQ | 0.0825
HMKHVDLDNNERYIYGIIGSTKIHVDEVVEKSGMETKHVMAILTNLELKEAIKGIPGGFYLR | -1.19
HMKHVENLSDEKTIQAIQENPYMQYLLGLSKFTEKPVFVPELFVLIRKRLDQDFFNMLTLILAEADG | -0.778
HMKHYIDFIAEQLKTLTAIPSPSGYTKNATDYLMKLLQDMGYEPKLSRKGNVFVTLGGDGEPLVLAAHVD | -0.112
HMKIDELKAYLFQSVRVKNPHTQEYDTLKIIELNYYQDKIKAKLKNSDDDYITEMIFESIKHLQNFLG | -1.98
HMKIEEIAYSTFISMLDKGEVSKVELKDNLIYIETKADDKTIYTTGRMEDPDLTNRLIEAGVDFTEIE | -0.73

Sequence | soluble fraction (log2)
HMKIELSDNEKIIYDLLSSQHVLLSEIKDKAGLSNKAWDKSTKSLRKLGLIAVEKKDDDIYISKL | 0.247
HMKIGIYPGTFDPITHGHTDIIRRSLRVFDKVVVAVAPNPSKHPLFTLTERLEMIRIVMKELEHVEVT | 0.117
HMKILVTDDNIRIDKYLTTQTEYSRSTIQKMIESNNILVNNKPTKSNYILRNNDEITIDENFNEE | -0.0512
HMKININEASRYELMTIGGLDAGRADMLMQYRQKREISSADELKGINGFASYDTAKLQKSFEISP | 0.00275
HMKIRKAVIPAAGLGTRVLPASKSIPKEMLPIVDKPVIQYIVEEAVKAGITEILIITGRGKGAIEDHFDRS | 0.0275
HMKISIDNPSVLLDKLATLFPDTSKNKLRKMLTEGRIYVNDNIEHRAKRELINGDTVKILDKTTSKE | -0.0228
HMKITAPLPGTITEIKVKVGDTVKNGDTVVVLEAMKMQNNIEAESNGTVTAIFVNKGDTVMEGDALMTI | 0.22
HMKITTKNYFKAIAEVGVENLPAALKKSHDLIEERTSKGADWSVYEHDAEVRRVFDLTFEKLFEFIDQ | -1.23
HMKKAITMGDIITVKELSEKIGIQVAEIIKKLMGLGILATINKELDYDTANVIASEFHIELERK | 0.0872
HMKKASLSTVEKKLMKQNYSNDTMENRLARVESYMFGTVFSSDDTQTRIDRISSAYNAQKSS | -0.197
HMKKDLATYAYEHIKQMVIDRELMPGERIQQEVLARELGISRTPLVTALNRLASENLVELEANKGFSVRRF | 0.429
HMKKEETEAEELEEKFTSAQIKQAYGILNDPRYKQGNYSGAVNVINKIAPGLADHPDVKNALKRANEEL | -0.323
HMKKGRIGSIIQYVREHPGVSSSEIITGLGLDISPATIRRDLTLLVAENKLSVEGQNKGTKYFVSPTYDMF | 0.271
HMKKIDVEVVRSQLIAWMADNGKSQAEVSKSMGISASALSMFIKGTYTGDNEQIGRKAAALMDLVHRQSA | 0.189
HMKKILITGNSGYIGSHLSKMLENDYEVHGLDIRQPQHPVAKFYEQDINRPINIEEEYDAVIHLAALV | -0.104
HMKKILLGDVNLDGKVDVNDVTLLQRYIAGETEVITSKDALTATNFNKDGNIDVLDVTDIQTFIANSE | 0.00934
HMKKLTNKQIIFFAEKLAHHSDFASKYSKVGESYEEFAIRLEKELNTPQKVEFYSSYLEKVGFK | -0.78
HMKKPKTVLSEEQKEFIINQAQDGVSAYDIARILFPSVNVTNLSKEVIDVAEFIRDTDIKLLADSE | -0.132
HMKKPRKTSRKSIENAAIFYLQRFSSSIENLRRVLMRRVYRSAQYHNTKPEEDAKIVDSIIYRLIETGVL | -0.0658
HMKKSRLHSVLEEIPGIGEKRRKILIKHFGTVEAIKKSSLEELARIKGMNRRAAQNVLEYLK | 0.407
HMKKVIKIEENVSLQKLAALMSLKVTDVLMRLLSMGMSGVNINSTIDADTAKILASEFGWTVED | -0.669
HMKKVKVPNVVGMSLKEARDALSAVNIAVNQVAGSVEDKSVVTEQSLKAGDEVDEGSSLNLTTEYK | 0.412
HMKKYLTETEAAAYLNMPVEEIKAAITKGEIEQYVKTSSGYTISVEELDKFFGQKAYDTMTSNNS | -0.43
HMKLASIGDNIHTLRKNKGLTQSQLAGKLGVNVDTISNYEKGVSTPDFDIVEKLVNIFNVDAHSLLFK | -0.351
HMKLEKKWIEAVEKYRRYVLSTGIKHVQKPIEFENFRLGQWYADVRQSYRRGTLSKEKLLEIREINPDFPN | 0.324
